Here are results for one molecule from patent US20090030181A1 (KOREA RESEARCH INSTITUTE OF BIOSCIENCE AND BIOTECHNOLOGY, published 2009).

Where no end group is shown, it is not given here.

The target of the test is T1, human mdm2 N-terminal domain, mdm2(3-109) (human, UniProt Q00987 3-109).
T1 construct: Expressed in E. coli BL21(DE3) from a pLM1 vector; Uniformly 15N-labelled (or 15N,13C-labelled) where it is the observed species in NMR; unlabelled when used as titrant and when immobilised on the CM5 chip
T1 sequence (Q00987 3-109 limits assumed): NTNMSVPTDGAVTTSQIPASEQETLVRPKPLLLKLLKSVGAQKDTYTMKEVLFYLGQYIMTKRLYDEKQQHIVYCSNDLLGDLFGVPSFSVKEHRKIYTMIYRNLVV
In words: SPR (BIAcore 2000), mdm2(3-109) amine-coupled on CM5, peptide injected at 1.5625-50 µM, equilibrium fit.

B1: native p53 TAD(49-54) peptide (peptide)
peptide: DIEQWF-NH2
notes: Synthetic, solid phase; also called p53 (49-54); p53(49-54) peptide
B1: the Kd (usually the equilibrium constant for the complex coming apart) is 25 µM. This counts as double-digit micromolar.
